According to patent US20120207760A1 (THERACLONE SCIENCES, published 2012):

B1: TCN-555 (5246_L16) (antibody, V domains shown)
VH: QVQLVQSGAEVKRPGSSVKVSCTASGGIFRKNAISWVRQAPGQGLEWMGGIIAVFNTANYAQKFQNRVKITADESGNTAYMELSSLTSDDTAVYYCASHPKYFYGSGSYPDFWGQGTLVTVSS
VL: QSALTQPRSVSGSPGQSITISCTGGSSDIGASNSVSWYQQHPGKAPKLVIFDVTERPSGVPHRFSGSKSGNTASLTVSGLQPDDEADYFCCAYGGKYLVVFGGGTKVTVL
B2: TCN-560 (5084_P10) (antibody, V domains shown)
VH: EVQLVESGGGLVQPGGSLRLSCAASGFIFRNYWMSWVRQAPGKGLEWVANIKQDGREKYYVDSLRGRVNISRDNAENSLYLHMNSLRVEDTAVYFCARARMVVVTGDGFDVWGHGTMVTVSS
VL: DIQMTQSPSSLSASVGDRVTITCRASQNIKRYFNWYQQKPGKAPKLLIYAASNLENGVPSRFSGSGSGTDFTLTISSLQPEDFATYYCQQSFSKSWTFGQGTNVDIK
B3: TCN-544 (5082_A19) (antibody, V domains shown)
VH: QVQLQESGPGLVKPSETLSLTCTVSRGSIGHYFWSWIRQPPGKGLEWIGYISYSGSTKYNPSLRSRVTISVDTSKNQFSLNLNSVTATDTALYYCAREDYDILTGAGPGMEVWGQGTTVTVSS
VL: QSMLTQPPSASGTPGQRVTISCSGSSSNIGSNTVNWFKHLPGTAPKLLIYRNDLRPSGVPDRFSGSKSGTSASLAISGLQSEDEADYYCATWDDSLNGFYVFGTGTKVTVL
B4: TCN-552 (5249_I23) (antibody, V domains shown)
VH: QVQVVQSGAEVKKPGSSVRVSCQASGGTFMNYAIIWVRRAPGQGLEWMGGIIPVFPTPNYAQMFQGRVTISTDESRSTSFLELTNLRYEDTAVYYCARRIYHGGNSGFDFWGQGTLVTVSS
VL: EIVLTQSPATLSLSPGERATLSCRASQSVGNYLAWYQQKPGQAPRLLIYDSSNRAPGIPARFSGSGSGTDFTLTISSLAPEDFAVYYCQQRSKWPPMYSFGHGTKLEIK
B5: TCN-553 (5261_C18) (antibody, V domains shown)
VH: QVQVVQSGTEVKKPGSSVKVSCQTSGGRFMSYAITWVRQAPGQGLEWMGGIVPVFGTANYAQKFQGRVTITTDDSTRTAYMELSSLRSEDTAVYYCGFRYGSGYGFDSWGQGTLVTVSS
VL: EIVLTQSPGTLSLSPGERATLSCRASQSVSSSYLAWYQKKPGQAPRLLIYGASTRATGIPDRFTGSGSGTDFTLSISRLEPEDFAVYYCQHFGTSVFTFGGGTKVEIK
B6: TCN-548 (5092_P01) (antibody, V domains shown)
VH: QVQLQESGPGLVKPSETLSLTCTVSSGPMSDYYWSWIRQPPGKGLEWIGHVSVSHGGRTKSNPSVMSRVTISVETSKNQFSLKLTSVTAADTAVYYCARLNYYDRSGYHSPDGPSNNWFDPWGQGTLVTVSS
VL: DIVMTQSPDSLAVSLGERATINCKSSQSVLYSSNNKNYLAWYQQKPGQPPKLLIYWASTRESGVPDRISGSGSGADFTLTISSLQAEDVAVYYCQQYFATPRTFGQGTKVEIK
B7: TCN-545 (5082_I15) (antibody, V domains shown)
VH: QVQLQQWGAGLLKPSETLSLSCAVFGGSFSDYYWTWIRQPPGKGLEWIGEIKHSGRTNYNPSLESRVTISVDTSKNQFSLKLSSVTAADTAIYYCARGTDPDTEGYCRSGSCSAFDFWGQGTLVTVSS
VL: EIVLTQSPGTLSLSPGERATLSCRASHFVNYRSLAWYQQTPGQVPRLLIYGASTRATGIPDRFSGSGSGTDFTLTISRLEPEDFAVYFCQQYGGSPRYTFGQGTRLEIK
B8: TCN-557 (5081_A04) (antibody, V domains shown)
VH: QVQLVQSGAEVKKPGASVKVSCKASGHTFTGYYIHWVRQAPGQGLEWMGWINPDSGATSSAQNFQGRVTMTGDTSSSTAYMELSRLSFDDTAVYYCARVLFTSPFDFWGEGTLVTVSS
VL: QAVVTQEPSLAVSPGGTVTLTCGSSTGAVTRGHYPYWFQQKPGQAPRALIYDSAGNRHSWTPARFSGSLLGGKAALTLSGAQPEDEAEYYCLLSYSGVWVFGGGTKLTVL
B9: TCN-547 (5092_F11) (antibody, V domains shown)
VH: QVQLQESGPGLVKPSQTLSLTCTVSGDSISSVDHYWSWIRQHPVKGLEWIGFMYYSASTYYNPSLKSRVTISTDTSKNQFSLRLSSVTAADTAVYYCARGTCAGDCSLHYYYYGLDVWGQGRTVTVSS
VL: DIQMTQSPSSLSASVGDRVTITCRASQSISSYLNWYQHKPGKAPKVLMYAVSILQSGVPSRFSGSGSGADFTLTISSLQPEDFATYYCQQSYSSPLTFGGGTKVEIK
B10: TCN-542 (5079_A16) (antibody, V domains shown)
VH: QVQLQESGPGLVKPSQTLSLTCTVSGGSISSGNYYWNWVRQHPGKGLEWIGYIYYRGSTFYNPSLKSRVTISIDTSKNQFSLRLSSVTAADTAVYYCAKDTRSSLDNYQYGMDVWGQGTTVTVSS
VL: QTVVTQEPSLTVSPGGTVTLTCASSTGAVTSSYFPNWFQQKPGQAPRPLIYSTTIRHSWTPARFSGSLLGGKAALTLSGVQPEDEADYYCLLYSGGDPVAFGGGTKLTVL
B11: TCN-550 (5096_F06) (antibody, V domains shown)
VH: QVQLQESGPGLVKPSETLSLTCTVSGASINSHYWSWIRQPPGKGLEWIGYVYYSGSTTYNPSLKSRVTLSVDTSKNQFSLNLSSVTAADTAFYYCARHPYDVLTGSGDWFDPWGQGTLVTVSS
VL: SYVLTQAPSVSVAPGQTARITCGGNAIGSKKVHWYQHKAGQAPVLVVYDDTDRPSGIPERFSGSNSWSTATLTINRVEAGDEADYYCQVWDFTIDHVVFGGGTKLTVL
B12: TCN-543 (5081_G23) (antibody, V domains shown)
VH: QVHLVQSGAEVRKPGDSVKVSCKTSGYTFSTYPVAWVRQVPGQGLEWMGWISTYNGNTNFAQNFQGRVTLTTDTTTNTAYMEVRSLKFDDTAVYYCARVEGSYRDFWNNQNRFDPWGQGTLVTVSS
VL: SYVLTQPPSVSVAPGQTARISCGGSNIGGKSVHWYQQKPGQAPVLVVYDDSGRPSGIPERFSGSNSGDTATLTISRVEAGDEADYFCQVWDNFGGVFGTGTKVTVL
B13: TCN-546 (5089_L08) (antibody, V domains shown)
VH: QVQLQQWGAGLLKPSETLSLTCGVYGGSLSDYYWSWIRQPPGKGLEWIGEINHSGGTNYNPSLKRRVTISVDTSKKQFSLKMNSVTAADTAVYYCARGTDPDTEVYCRAGNCAAFDFWGQGTLVTVSS
VL: EIVLTQSPGTLSLSPGERATLSCRASHFVIGRAVAWYQQKPGQAPRLLIYGASSRATGIPDRFSGSGSGTDFTLTISRLETEDFAVFYCQHYGSSPRYAFGQGTKLEIK
B14: TCN-556 (5089_K12) (antibody, V domains shown)
VH: QVQLVQSGAEVKKPGASVKVSCKASGYTFIGYDMHWVRQAPGQGLEWMGWINAKRGGTNYAQKFQGRVTMTRDTSISTAYMELNSLRSDDTAVYYCARGVGSRTTIFGVLNPEFDYWGQGTLVTVSS
VL: QSALTQPPSASGSPGQSVTISCTGSSSDVGGYDYVSWYQQHPGKAPKLLIYEVTKRPSGVPDRFSGSKSGNTASLTVSGLQAEDEADYYCSSYAGNYNHVFGPGTKVTVL
B15: TCN-549 (5092_P04) (antibody, V domains shown)
VH: QVQLVQSGAEVKKPGASVKVSCKASGYTFTGYYMHWVRQAPGQGLEWMGWINPNSGDTNYAQKFQGRVTMTRDTSITTAYMELSSLRSDDTAVYYCARDSPYSSSWSFFDYWGQGPLVTVSS
VL: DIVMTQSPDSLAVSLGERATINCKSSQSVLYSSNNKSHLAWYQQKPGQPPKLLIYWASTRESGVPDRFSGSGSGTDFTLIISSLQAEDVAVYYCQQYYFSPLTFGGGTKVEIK
B16: TCN-031 Fab fragment (Fab, V domains shown)
VH: EVQLVESGGGLVQPGGSLRISCAASGFTVSSNYMSWVRQAPGKGLEWVSVIYSGGSTYYADSVKGRFSFSRDNSKNTVFLQMNSLRAEDTAVYYCARCLSRMRGYGLDVWGQGTTVTVS
VL: DIQMTQSPSSLSASVGDRVTITCRTSQSISSYLNWYQQKPGKAPKLLIYAASSLQSGVPSRFSGSGSGTDFTLTISGLQPEDFATYYCQQSYSMPAFGQGTKLEIK
B17: TCN-032 Fab fragment (Fab, V domains shown)
VH: QVQLQESGPGLVKPSETLSLTCTVSGSSISNYYWSWIRQSPGKGLEWIGFIYYGGNTKYNPSLKSRVTISQDTSKSQVSLTMSSVTAAESAVYFCARASCSGGYCILDYWGQGTLVTVS
VL: DIQMTQSPSSLSASVGDRVTITCRASQNIYKYLNWYQQRPGKAPKGLISAASGLQSGVPSRFSGSGSGTDFTLTITSLQPEDFATYYCQQSYSPPLTFGGGTRVEIK

Target: Hemagglutinin of influenza A/Japan/305/57 (H2N2), on inactivated whole virions (Influenza A virus A/Japan/305/1957 …, UniProt P03451 16-562)
Assay: ELISA, B cell culture supernatant on inactivated whole virions

First: B1
Second: B2
The OD450 of the first is lower: 0.6 OD450 for the first, 2.07 OD450 for the second.

First: B3
Second: B4
The OD450 of the first is lower: 0.07 OD450 for the first, 0.71 OD450 for the second.

Going from B5 to B6, the OD450 falls from 2.54 OD450 to 0.09 OD450.

First: B7
Second: B8
The OD450 of the first is lower: 0.06 OD450 for the first, 2.7 OD450 for the second.

Compared with B9, B10 is higher in OD450: 0.07 OD450 for the first, 0.08 OD450 for the second.

Going from B11 to B12, the OD450 rises from 0.06 OD450 to 3.62 OD450.

Compared with B13, B14 is higher in OD450: 0.06 OD450 for the first, 2.41 OD450 for the second.

With B15 the OD450 was 0.08 OD450.

Target: M2 protein of influenza A/Puerto Rico/8/34 (H1N1), on inactivated virus (Influenza A virus A/Puerto Rico/8/34 …, UniProt P06821 1-97)
Assay: surface plasmon resonance, Fab fragment on influenza virus

M2 protein of influenza A/Puerto Rico/8/34 (H1N1), on inactivated virus, sequence (P06821 whole entry, the tested form may be a part): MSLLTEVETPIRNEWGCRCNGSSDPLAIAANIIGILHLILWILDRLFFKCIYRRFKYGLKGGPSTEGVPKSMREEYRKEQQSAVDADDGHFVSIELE

Going from B16 to B17, the Kd falls from 14 nM to 3.2 nM (4.4-fold).

Compared with B16, B17 is 6.1-fold lower in koff: 0.014 s⁻¹ for the first, 0.0023 s⁻¹ for the second.

B16 and B17 are within 1.5-fold of each other in kon: 1e+06 M⁻¹ s⁻¹ for the first, 740000 M⁻¹ s⁻¹ for the second.
